Reference: the RNAGym collection of RNA variant scans (doi:10.7554/elife.90254)

B1: OR4K15 (parent)
chain: GUUAACGGUCAUAGGCCAUGGAAACUAGGAGCACCAUUUCGCUGCCAGUGAAGAAAUGAACAAAGAAAAUCUGGGCCAGGCAGGCAUCAAAAGAAAUAGUCUUGCGCUCAACCAGAAAGUCUGUAAUCAUUUUAAGGGUA

Variants of: B1
Assay: self-cleavage, relative activity (ratio to wild type); higher = more cleavage; in vitro, sequencing; the parent is a self-cleaving ribozyme

In order of rising self-cleavage:
1. A36U U108A  0
2. U38A G104A  0
3. U38A U108G  0.01
4. U37C G106A  0.01
5. A36U U108C  0.02
6. U38A G75C  0.03
7. U37C G104A  0.03
8. U38A U108A  0.04
9. U38A U103G  0.04
10. U37A A114U  0.06
11. U37C G75A  0.08
12. U38C A116U  0.09
13. U37C G80U  0.11
14. U37C G79U  0.12
15. U37C A82U  0.13
16. U37C A110G  0.13
17. U38C A114U  0.15
18. U38A A110G  0.16
19. U37C C128A  0.17
20. U37A A116G  0.18
21. U37C G73A  0.19
22. U37C G74U  0.2
23. U38A G74A  0.21
24. U38A A54G  0.28
25. U37C A114G  0.34
26. U37C C109A  0.34
27. U37C G115U  0.37
28. U37G A90G  0.38
29. U37A A89G  0.43
30. U37A A126G  0.44
31. U37C U49G  0.44
32. U37C C81U  0.49
33. U38C A125G  0.54
34. U38C A82G  0.57
35. U37A A82G  0.61
36. U37A U130C  0.61
37. U38A U103C  0.64
38. U37A A67U  0.67
39. U37C A67G  0.68
40. U38A U57C  0.69
41. U37A U127C  0.71
42. U37C A56G  0.73
43. U37C A92G  0.77
44. U37A A91G  0.78
45. U37C A98G  0.8
46. U38A A116G  0.81
47. U38A A68G  0.82
48. U37C U120C  0.84
49. U38A U124A  0.87
50. U38C A69G  0.88
51. U37C A96C  0.89
52. U37C A90U  0.91
53. U37C U130A  0.91
54. U38C A55G  0.93
55. U37C U130C  0.97
56. U37C A116G  0.98
57. U38C A118U  0.98
58. U37G A118G  0.99
59. U37C U87C  0.99
60. U38C A62U  1.06
61. U37A A98G  1.07
62. U38A G50A  1.07
63. U37C U127C  1.08
64. U38C A116G  1.09
65. U37C U70A  1.1
66. U37C A117U  1.11
67. U37C A90G  1.12
68. U37G A129G  1.12
69. U38A A59G  1.14
70. U37A A60G  1.14
71. U37C G58A  1.14
72. U37C U131C  1.15
73. A36U U122C  1.15
74. U38C A117G  1.18
75. U37C U57C  1.18
76. U38A A90G  1.18
77. U37C A47G  1.19
78. U37A U139C  1.19
79. U37A U70C  1.21
80. U38C A51U  1.24
81. U38C A91G  1.24
82. U37C U122C  1.25
83. U37C A68G  1.25
84. U38A A94U  1.28
85. U37G A51G  1.31
86. U37C A89C  1.31
87. U38A G48A  1.31
88. U37C A126G  1.31
89. U37C A134G  1.32
90. U38C A66U  1.32
91. U38A A60G  1.32
92. U38C A51G  1.33
93. U38A A51G  1.33
94. A36U U120C  1.34
95. U37C U132A  1.34
96. U37G U87A  1.38
97. U37A A118G  1.4
98. U38C A94C  1.41
99. U37C A60C  1.44
100. U38A  1.44
101. U38C A60G  1.44
102. U38C  1.45
103. A36U U130C  1.45
104. U38C A110U  1.46
105. U37C A62U  1.49
106. U37C U102C  1.49
107. U38C A56G  1.5
108. U37C U38C  1.51
109. U38C A96G  1.51
110. U37C A89G  1.52
111. U37C U132C  1.54
112. U38A A56C  1.55
113. U37C U43A  1.55
114. U37C G44A  1.56
115. U37C A55U  1.57
116. U38A U132C  1.58
117. U37C G48A  1.59
118. U37C A69U  1.6
119. U38A U39C  1.62
120. U38A A52G  1.63
121. U37C U49A  1.64
122. U38A A94C  1.68
123. U37C A60U  1.69
124. U37C C42G  1.69
125. U38C A63G  1.7
126. U37C A66U  1.7
127. U37C G84A  1.7
128. U37C U49C  1.71
129. U38A U49C  1.72
130. U37C A59G  1.72
131. U37C U39C  1.72
132. U37C U139C  1.72
133. U37A A66G  1.72
134. U37C A94G  1.76
135. U37A A59G  1.78
136. A36U U122A  1.78
137. U37A A60U  1.8
138. U37C A98U  1.84
139. U37A U102C  1.85
140. U38A A94G  1.85
141. U37C A140U  1.87
142. A36U U131C  1.87
143. U38A A134G  1.9
144. U37A A69U  1.92
145. U37G A96G  1.97
146. U38C A66G  1.97
147. U37C A117G  1.98
148. U37C U97C  2.06
149. U37C U127A  2.07
150. U38A G93A  2.09
151. U37C C77U  2.11
152. U37C G83A  2.15
153. U38C A68U  2.15
154. U37C A135U  2.17
155. U38A A135G  2.17
156. U38C A90U  2.23
157. U37C A89U  2.23
158. U37C G136A  2.23
159. U37A G137A  2.24
160. U37A U100C  2.33
161. U37C A95G  2.37
162. U38A U87A  2.41
163. U37C U120A  2.58
164. U38A A89G  2.67
165. U38A G137U  2.73
166. U38A A118G  2.73
167. A36U U127A  2.98
